The target of experiment [1] is APC mutant QGNSEDY (ALL) (human) (UniProt P04070). Put plainly: cell-based or functional assay.
The target in experiment [2] is wild-type human activated protein C (recombinant, thrombin-activated) (human) (UniProt P04070). Nature of the experiment: cell-based or functional assay.

“human protein S (from UniProt P07225 42-676)”: in experiment [1], the APTT clotting time in protein S deficient human plasma with APC, in absence of protein S is 160 s and the APTT clotting time in protein S deficient human plasma with APC, protein S added stood at 350 s. Moreover, in experiment [2], the APTT clotting time in protein S deficient human plasma with APC, highest protein S concentration amounted to 150 s and the APTT clotting time in protein S deficient human plasma with APC, in absence of protein S was 100 s.

(Values after patent publication US20050176083A1.)
